Data from paper PMC10864337.

What was measured:
[1] = biological target: Drp1 Y493A (isoform 1) (human) (UniProt O00429)
[2] = biological target: Drp1 Y493A (isoform 1) (human) (UniProt O00429); assay: SEC-MALS; 5 µM Drp1 injected onto a Superose 6 10/300GL column

- GTPase activity (malachite green) with cardiolipin-containing nanotubes; not stimulated [1]: 1.2 min⁻¹
- stoichiometry N [2]: 2
Substance: Drp1 Y493A (isoform 1) (from UniProt O00429-1 1-736) (natural protein)
